{"source": "paper doi:10.1101/2023.11.20.567881", "key": {"[1]": {"target": "yeast surface-displayed DARPin 3G146 variant 2-G4 (G150S)", "experiment": "flow cytometry on cells"}, "[2]": {"target": "yeast surface-displayed DARPin 3G146 variant 2-H3 (G237S)", "experiment": "flow cytometry on cells"}}}
{"substance": "EGFP-His6 (from UniProt P42212 1-238) (natural protein)", "values": [{"measurement": "fold improvement of apparent binding affinity over 3G146", "setting": "[1]", "result": 8, "unit": "fold"}, {"measurement": "fold improvement of apparent binding affinity over 3G146", "setting": "[2]", "result": 28, "unit": "fold"}]}
